A word on the EC50 (read off the curve): it is the midpoint of the concentration-response curve. A lower EC50 (read off the curve) goes with a more potent agent.

These results are taken from patent US20200165324A1.

The target of test [1] is BG505 D474A.
Test [2] has as its target BG505 N262A.
For test [3], the target named is JR-CSF P369A.
In test [4] the target is JR-CSF K282A.
The target in test [5] is BG505 N276A.
In test [6] the target is JR-CSF M373A.
The target of test [7] is JR-CSF D279A.
In test [8] the target is JR-CSF D474A.
In test [9] the target is JR-CSF V372A.
In test [10] the target is Env of the 12-virus indicator panel. Description: cell-based or functional assay.
The target of test [11] is Env of the 117-virus panel (117 cross-clade virus panel). The test can be described thus: cell-based or functional assay.
In test [12] the target is stabilized BG505 SOSIP construct MD39 (HIV isolate BG505). Description: competition ELISA on MD39 vs 12A12. On the technique in general: In an ELISA, binding on a coated surface is turned into a signal by an enzyme label.
The target is the same in test [13]. Description: competition ELISA on MD39 vs b12.
The target is the same in test [14]. Description: competition ELISA on MD39 vs PG9.
Test [15] has the same target. Description: competition ELISA on MD39 vs PGDM1400.
Test [16] has the same target. The test can be described thus: competition ELISA on MD39 vs PGT128.
Test [17] shares this target. The test can be described thus: competition ELISA on MD39 vs PGT121.
For test [18] the target is unchanged. The test can be described thus: competition ELISA on MD39 vs VRC01.
For test [19] the target is unchanged. The test can be described thus: competition ELISA on MD39 vs Self.
Test [20] has the same target. The test can be described thus: competition ELISA on MD39 vs 3BNC117.
Test [21] has the same target. Description: competition ELISA on MD39 vs CH103.
Test [22] has the same target. The test can be described thus: competition ELISA on MD39 vs 35022.
The target is the same in test [23]. The test can be described thus: competition ELISA on MD39 vs PGT151.
The target of test [24] is gp120 (isolate 92BR020) (HIV-1 isolate 92BR020). The test can be described thus: ELISA on gp120 (isolate 92BR020), buffer pH 6.
For test [25] the target is unchanged. The test can be described thus: ELISA on gp120 (isolate 92BR020), buffer pH 5.5.

B1: NC-Cow1 (antibody)
VH: QVQLRESGPSLMKPSQTLSLTCTVSGSSLNDKSVGWVRQAPGKALQWLGSVDTSGNTDYNPGLKSRLSITKDNSKSRISLTVTGMTTEDSATYYCITAHQKTNKKECPEDYTYNPRCPQQYGWSDCDCMGDRFGGYCRQDGCSNYIHRSTYEWYVSAWGQGLLVTVSS
VL: SYELTQPSSVSGSLGQRVSVTCSGSSSNVGNGYVSWYQLIPGSAPRTIIYGDTSRASGVPERFSGSRSGNTATLTISSLQAEDEADFFCASPDDSSSNAVFGSGTTLTVL
Take B1: the IC50, pseudovirus neutralization in test [1] is 0.009 µg/mL; in test [2] it was 0.014 µg/mL; in test [3] it was 1.24 µg/mL; in [4] it was more than 50 µg/mL; in test [5], 0.011 µg/mL; in test [6], 2.52 µg/mL. Also, the IC50, pseudovirus neutralization in test [7] is 1.02 µg/mL; in test [8], 0.744 µg/mL; in test [9], more than 50 µg/mL. Also, the median IC50 of neutralization on the 12-virus indicator panel in [10] was 0.007 µg/mL. The neutralization breadth on the 12-virus indicator panel in [10] came out at 100%. In [11], this molecule yielded a median IC50 of neutralization on the 117-virus panel of 0.028 µg/mL. Further, the neutralization breadth on the 117-virus panel (pseudovirus, TZM-bl cells) in test [11] was 72%.

B2: NC-Cow7 (antibody)
VH: KVQLRESGPSLVKPFETLSLTCTGSGFSLSDKAAGWVRQAPGKAPEWLGSIDTGGNTGYNPGLKYRLSITKDNSKSQVSLSVSSMTSEDSATYYCTTVHQKAYKKVCPDDYSSNPDCVRLYGWSHCDCMRDSFGGWCRADGCSSTVEIGPYEWYVNAWGQGLLVTVSS
VL: QAVLTQPSSVSGSLGQRVSITCSGSSSNVGNGYVSWYQLIPGSAPRSLIYGDTSRASGVPDRFSGSRSGNTATLTISSLQAEDEADYFCASPEDSSSNGVFGSGTTLTVL
In the case of B2, the competition value in test [12] was determined as 92; in [13] it was 9; in test [14], 8; in [15], 12; in [16] it was 31; in [17], 23. The competition value in [18] was determined as 87; in [19], 90; in test [20] it was 90; in [21] it was 35; in [22] it was 5; in test [23], 20.

B3: NC-Cow5 (antibody)
VH: QVQLQESGPSLVKPSQTLSLTCMVSGFSLNDKAVGWVRQAPGKALEWLGSIDAGGSTGYNPGLKSRLSISKDNSKNQVSLSVSSVTTEDSATYYCGTVHQRTQPKQTCPNGYSDDSALRYYSRCSDRDCWRCTGTTYYDTCQCSSYTYIHTYELYVDAWGQGLLVTVSS
VL: QDVLTQPSSVSGSLGQRVSITCSGSSSNVGNGYVSWYQLIPGSAPRTLIYGDTSRASGVPDRFSGSRSGNTATLTISSLQAEDEADYFCASPEDSSSNAVFGSGTTLTVL
Regarding B3, the competition value in test [12] was 95; in test [13], 23; in test [14], 21; in test [15] it was 3; in [16], 71; in test [17], 21. The competition value in [18] was 95; in test [19], 37; in test [20], 94; in test [21], 38; in test [22], 14; in test [23] it was 2.

B4: NC-Cow2 (antibody)
VH: KVQLRESGPSLVKPSQTLSLTCMVSGSSLSDKAVGWVRQAPGKALEWLGIISAGGNRGYNSGLRSRLTISKDNSKNEVSLRVRSVTTEDSATYFCGTVHQKTQRKPICPDGYSDDSTLRYYSRCSDRDCWRCTGTTYYDTCQCGTYTWIDTHELHVDAWGQGLLVTVSS
VL: QAVLNQPSSVSGSLGQRVSITCSGSSSNVGNGYVSWYQLIPGSAPRTLIYGDTSRASGVPDRFSGSRSGNTATLTISSLQAEDEADYFCASAEDSSSNAVFGSGTTLTVL
For the molecule B4, the competition value came to 94 in [12]; 0 in test [13]; 4 in test [14]; 18 in test [15]; 57 in [16]; 27 in [17]. Besides, the competition value worked out at 93 in [18]; 91 in test [19]; 93 in [20]; 11 in test [21]; 11 in test [22]; 11 in test [23].

B5: NC-Cow4 (antibody)
VH: KVQLRESGPSLVKPSQTLSLTCMVSGFSLNDEAVGWVRQAPGKALEWLGSIDAGGSTGYNPGLKSRLSISKDNSKNQVSLSVSSVTTEDSATYYCGTVHQRTQPKQTCPNGYSDDSALRYYSRCSDRDCWRCTGTTYYDTCQCSSYTYIHTYELYVDAWGQGLLVTVSS
VL: QAVLTQPSSVSGSLGQRVSITCSGSSSNVGNGYVSWYQLIPGSAPRTLIYGDTSRASGVPDRFSGSRSGNTATLTISSLQAEDEADYFCASPEDSSSNAVFGSGTTLTVL
For the molecule B5, the competition value in [12] was 95; in test [13] it was 29; in test [14], 7; in [15] it was 22; in test [16], 35; in [17] it was -11. The competition value in test [18] was found to be 94; in [19], 84; in test [20], 95; in test [21] it was 13; in test [22], 18; in test [23] it was 20.

B6: PGV04 (antibody, from a related filing, V domains shown)
VH: QVQLVQSGSGVKKPGASVRVSCWTSEDIFERTELIHWVRQAPGQGLEWIGWVKTVTGAVNFGSPDFRQRVSLTRDRDLFTAHMDIRGLTQGDTATYFCARQKFYTGGQGWYFDLWGRGTLIVVSS
VL: EIVLTQSPGTLSLSPGETASLSCTAASYGHMTWYQKKPGQPPKLLIFATSKRASGIPDRFSGSQFGKQYTLTITRMEPEDFARYYCQQLEFFGQGTRLEIR
B6: the concentration for a half-maximal effect (EC50 (read off the curve)) in test [24] and in test [25] was 0.2 µg/mL in each case.

B7: germline PG9 HC (NC-Cow1 VH CDR3) + mature PG9 LC (antibody)
VH: QVQLVESGGGVVQPGRSLRLSCAASGFTFSSYGMHWVRQAPGKGLEWVAVISYDGSNKYYADSVKGRFTISRDNSKNTLYLQMNSLRAEDTAVYYCITAHQKTNKKECPEDYTYNPRCPQQYGWSDCDCMGDRFGGYCRQDGCSNYIHRSTYEWYVSAWGKGTTVTVSS
VL: QSALTQPASVSGSPGQSITISCNGTSNDVGGYESVSWYQQHPGKAPKVVIYDVSKRPSGVSNRFSGSKSGNTASLTISGLQAEDEGDYYCKSLTSTRRRVFGTGTKLTVL
In [10], B7 yielded a median IC50 of neutralization on the 12-virus indicator panel of 0.054 µg/mL and a neutralization breadth on the 12-virus indicator panel of 88%.
